Experimental data taken from article PMC9482650, “Quantitative fragmentomics allow affinity mapping of interactomes” (Nature Communications, 2022).
One block for each binder: values may come before it.

Columns and labels:
Assay in all cases: holdup assay
Set-up in all cases: key: below the threshold = too weak to quantify, mostly under pKd 3.1 to 4
MAGI3_2, Q5TCQ9 = target: MAGI3_2, Q5TCQ9
GRIP1_5, Q9Y3R0 = target: T1, GRIP1_5, Q9Y3R0
T1 sequence (Q9Y3R0 568-668, limits assumed, looked up): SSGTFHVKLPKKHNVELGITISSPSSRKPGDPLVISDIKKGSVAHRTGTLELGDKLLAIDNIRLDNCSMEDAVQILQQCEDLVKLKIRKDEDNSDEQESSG

SNTG2, Q9NY99 = target: T2, SNTG2, Q9NY99
T2 sequence (Q9NY99 68-166, limits assumed, looked up): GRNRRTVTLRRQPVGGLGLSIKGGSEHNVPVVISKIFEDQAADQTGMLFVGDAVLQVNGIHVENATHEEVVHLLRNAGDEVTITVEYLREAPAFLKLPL

SNX27, Q96L92 = target: SNX27, Q96L92
MAGI2_3, Q86UL8 = target: MAGI2_3, Q86UL8
MAGI2_5, Q86UL8 = target: MAGI2_5, Q86UL8
MPDZ_12, O75970 = target: T3, MPDZ_12, O75970
T3 sequence (O75970 1857-1958, limits assumed, looked up): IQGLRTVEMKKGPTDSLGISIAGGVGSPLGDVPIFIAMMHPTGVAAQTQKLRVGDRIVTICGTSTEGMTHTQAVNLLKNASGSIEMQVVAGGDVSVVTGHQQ

SNTG1, Q9NSN8 = target: T4, SNTG1, Q9NSN8
T4 sequence (Q9NSN8 52-150, limits assumed, looked up): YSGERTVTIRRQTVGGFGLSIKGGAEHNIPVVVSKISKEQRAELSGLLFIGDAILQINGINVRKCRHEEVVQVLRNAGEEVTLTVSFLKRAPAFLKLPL

LDB3, O75112 = target: LDB3, O75112
SYNJ2BP, P57105 = target: T5, SYNJ2BP, P57105
T5 sequence (P57105 8-110, limits assumed, looked up): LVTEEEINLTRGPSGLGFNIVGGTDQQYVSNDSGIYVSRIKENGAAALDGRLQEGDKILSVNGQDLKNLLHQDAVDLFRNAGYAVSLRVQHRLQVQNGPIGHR

DLG4_3, P78352 = target: DLG4_3, P78352
DLG5_1, Q8TDM6 = target: DLG5_1, Q8TDM6
PARD3_3, Q8TEW0 = target: PARD3_3, Q8TEW0
PDZRN3_1, Q9UPQ7 = target: T6, PDZRN3_1, Q9UPQ7
T6 sequence (Q9UPQ7 244-349, limits assumed, looked up): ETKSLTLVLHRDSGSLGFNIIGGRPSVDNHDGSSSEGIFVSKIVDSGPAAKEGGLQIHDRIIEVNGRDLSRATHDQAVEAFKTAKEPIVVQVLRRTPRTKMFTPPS

TX1BP3, O14907 = target: T7, TX1BP3, O14907
T7 sequence (O14907 10-122, limits assumed, looked up): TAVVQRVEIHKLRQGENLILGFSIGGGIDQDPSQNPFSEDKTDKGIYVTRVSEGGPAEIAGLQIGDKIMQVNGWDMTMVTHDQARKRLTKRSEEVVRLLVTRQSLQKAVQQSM

NOS1, P29475 = target: NOS1, P29475
LNX2_2, Q8N448 = target: T8, LNX2_2, Q8N448
T8 sequence (Q8N448 334-432, limits assumed, looked up): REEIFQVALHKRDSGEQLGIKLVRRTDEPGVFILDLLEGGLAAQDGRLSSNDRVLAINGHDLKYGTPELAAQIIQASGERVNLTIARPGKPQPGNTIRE

MAGI2_2, Q86UL8 = target: MAGI2_2, Q86UL8
SCRIB_2, Q14160 = target: SCRIB_2, Q14160
IL16_1, Q14005 = target: IL16_1, Q14005
DLG4_2, P78352 = target: DLG4_2, P78352
GRID2IP_2, A4D2P6 = target: GRID2IP_2, A4D2P6
FRMPD2_2, Q68DX3 = target: FRMPD2_2, Q68DX3
FRMPD2_1, Q68DX3 = target: FRMPD2_1, Q68DX3
TJP1_2, Q07157 = target: TJP1_2, Q07157
NHERF3_4, Q5T2W1 = target: T9, NHERF3_4, Q5T2W1
T9 sequence (Q5T2W1 373-468, limits assumed, looked up): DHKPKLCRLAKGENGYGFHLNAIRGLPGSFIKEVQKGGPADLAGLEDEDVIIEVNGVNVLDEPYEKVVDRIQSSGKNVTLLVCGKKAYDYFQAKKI

TIAM2, Q8IVF5 = target: T10, TIAM2, Q8IVF5
T10 sequence (Q8IVF5 885-986, limits assumed, looked up): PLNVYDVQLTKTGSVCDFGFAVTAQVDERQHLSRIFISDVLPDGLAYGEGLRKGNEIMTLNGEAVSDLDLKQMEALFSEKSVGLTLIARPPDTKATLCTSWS

GRID2IP_1, A4D2P6 = target: GRID2IP_1, A4D2P6
[1] = plain residues with an end cap or a label only (N-terminal biotin on a linker: ahx)
[2] = plain residues with an end cap or a label only (N-terminal biotin on a linker: ado-ado)

Chain of DLG4_2, P78352 (P78352 155-259): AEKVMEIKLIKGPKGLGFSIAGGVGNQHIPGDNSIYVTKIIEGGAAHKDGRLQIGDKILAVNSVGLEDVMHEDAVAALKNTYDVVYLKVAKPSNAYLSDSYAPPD
Chain of MAGI2_3, Q86UL8 (Q86UL8 600-682): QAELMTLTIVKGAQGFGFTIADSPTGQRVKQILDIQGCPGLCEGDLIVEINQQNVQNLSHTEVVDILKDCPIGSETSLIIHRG
Chain of IL16_1, Q14005 (Q14005 210-306): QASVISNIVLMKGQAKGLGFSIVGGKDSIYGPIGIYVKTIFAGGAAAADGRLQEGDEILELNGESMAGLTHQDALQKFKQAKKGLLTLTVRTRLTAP
Chain of FRMPD2_1, Q68DX3 (Q68DX3 770-861): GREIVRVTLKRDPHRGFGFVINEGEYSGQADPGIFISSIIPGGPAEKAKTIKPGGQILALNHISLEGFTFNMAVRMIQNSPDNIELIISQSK
Chain of DLG5_1, Q8TDM6 (Q8TDM6 617-713): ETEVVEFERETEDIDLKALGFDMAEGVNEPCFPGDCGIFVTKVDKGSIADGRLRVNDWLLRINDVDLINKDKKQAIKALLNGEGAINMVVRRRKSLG
Chain of LDB3, O75112 (O75112 1-94): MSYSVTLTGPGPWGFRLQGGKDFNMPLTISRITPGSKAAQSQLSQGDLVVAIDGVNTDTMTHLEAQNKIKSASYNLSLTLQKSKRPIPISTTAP
Chain of GRID2IP_1, A4D2P6 (A4D2P6 1-87): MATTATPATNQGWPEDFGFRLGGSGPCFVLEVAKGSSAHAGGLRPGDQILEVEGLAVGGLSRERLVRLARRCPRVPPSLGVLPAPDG
Chain of GRID2IP_2, A4D2P6 (A4D2P6 272-370): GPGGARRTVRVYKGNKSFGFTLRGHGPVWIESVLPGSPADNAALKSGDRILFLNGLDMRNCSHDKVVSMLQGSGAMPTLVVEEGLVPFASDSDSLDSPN
Chain of TJP1_2, Q07157 (Q07157 181-274): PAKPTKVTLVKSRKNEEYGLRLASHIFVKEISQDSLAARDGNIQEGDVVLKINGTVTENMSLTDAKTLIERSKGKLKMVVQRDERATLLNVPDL
Chain of NOS1, P29475 (P29475 9-101): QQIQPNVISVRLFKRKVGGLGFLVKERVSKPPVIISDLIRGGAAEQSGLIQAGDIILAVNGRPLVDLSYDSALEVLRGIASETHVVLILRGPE
Chain of PARD3_3, Q8TEW0 (Q8TEW0 582-685): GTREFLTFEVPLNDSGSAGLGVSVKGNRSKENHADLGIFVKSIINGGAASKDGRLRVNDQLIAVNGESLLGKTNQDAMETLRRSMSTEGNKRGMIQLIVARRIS
Chain of FRMPD2_2, Q68DX3 (Q68DX3 944-1038): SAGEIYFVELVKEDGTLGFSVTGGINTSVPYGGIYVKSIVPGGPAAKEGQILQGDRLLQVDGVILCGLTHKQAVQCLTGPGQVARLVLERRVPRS
Chain of MAGI2_2, Q86UL8 (Q86UL8 410-522): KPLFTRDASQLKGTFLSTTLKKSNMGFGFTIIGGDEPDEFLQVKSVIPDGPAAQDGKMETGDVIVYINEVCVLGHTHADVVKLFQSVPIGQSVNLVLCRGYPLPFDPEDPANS
Chain of DLG4_3, P78352 (P78352 306-403): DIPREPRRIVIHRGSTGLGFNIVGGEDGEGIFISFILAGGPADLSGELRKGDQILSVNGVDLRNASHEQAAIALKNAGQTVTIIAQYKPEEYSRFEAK
Chain of MAGI3_2, Q5TCQ9 (Q5TCQ9 398-503): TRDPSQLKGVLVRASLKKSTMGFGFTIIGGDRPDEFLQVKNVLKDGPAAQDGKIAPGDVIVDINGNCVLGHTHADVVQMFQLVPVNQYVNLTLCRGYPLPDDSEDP
Chain of MAGI2_5, Q86UL8 (Q86UL8 915-1017): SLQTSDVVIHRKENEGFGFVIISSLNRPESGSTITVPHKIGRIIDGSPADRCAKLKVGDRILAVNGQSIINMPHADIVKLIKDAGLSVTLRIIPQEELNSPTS
Chain of SCRIB_2, Q14160 (Q14160 857-960): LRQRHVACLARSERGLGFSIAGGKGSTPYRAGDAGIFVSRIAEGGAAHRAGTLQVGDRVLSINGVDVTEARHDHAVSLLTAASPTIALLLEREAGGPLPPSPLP

pKd (MAGI3_2, Q5TCQ9; [1]): 3.58
pKd (GRIP1_5, Q9Y3R0; [1]): 3.55
pKd (SNTG2, Q9NY99; [1]): 3.6
pKd (SNX27, Q96L92; [1]): 3.65
pKd (MAGI2_3, Q86UL8; [1]): 3.49
pKd (MAGI2_5, Q86UL8; [1]): below the threshold
pKd (MPDZ_12, O75970; [1]): below the threshold
pKd (SNTG1, Q9NSN8; [1]): below the threshold
pKd (LDB3, O75112; [1]): 3.56
pKd (SYNJ2BP, P57105; [1]): below the threshold
pKd (DLG4_3, P78352; [1]): 3.56
pKd (DLG5_1, Q8TDM6; [1]): below the threshold
pKd (PARD3_3, Q8TEW0; [1]): 3.81
pKd (PDZRN3_1, Q9UPQ7; [1]): 3.56
pKd (TX1BP3, O14907; [1]): below the threshold
pKd (NOS1, P29475; [1]): below the threshold
pKd (LNX2_2, Q8N448; [1]): 3.87
pKd (MAGI2_2, Q86UL8; [1]): 3.54
pKd (SCRIB_2, Q14160; [1]): 3.71
pKd (IL16_1, Q14005; [1]): below the threshold
pKd (DLG4_2, P78352; [1]): 3.51
pKd (GRID2IP_2, A4D2P6; [1]): below the threshold
pKd (FRMPD2_2, Q68DX3; [1]): below the threshold
pKd (FRMPD2_1, Q68DX3; [1]): below the threshold
pKd (TJP1_2, Q07157; [1]): below the threshold
pKd (NHERF3_4, Q5T2W1; [1]): 3.61
pKd (TIAM2, Q8IVF5; [1]): below the threshold
pKd (GRID2IP_1, A4D2P6; [1]): below the threshold
Binder: HNAFLSVTTV [PDZRN4, Q6ZMN7]

pKd (MAGI3_2, Q5TCQ9; [2]): below the threshold
pKd (GRIP1_5, Q9Y3R0; [2]): below the threshold
pKd (SNTG2, Q9NY99; [2]): below the threshold
pKd (SNX27, Q96L92; [2]): below the threshold
pKd (MAGI2_3, Q86UL8; [2]): below the threshold
pKd (MAGI2_5, Q86UL8; [2]): below the threshold
pKd (MPDZ_12, O75970; [2]): below the threshold
pKd (SNTG1, Q9NSN8; [2]): below the threshold
pKd (LDB3, O75112; [2]): below the threshold
pKd (SYNJ2BP, P57105; [2]): below the threshold
pKd (DLG4_3, P78352; [2]): below the threshold
pKd (DLG5_1, Q8TDM6; [2]): below the threshold
pKd (PARD3_3, Q8TEW0; [2]): below the threshold
pKd (PDZRN3_1, Q9UPQ7; [2]): below the threshold
pKd (TX1BP3, O14907; [2]): below the threshold
pKd (NOS1, P29475; [2]): below the threshold
pKd (LNX2_2, Q8N448; [2]): below the threshold
pKd (MAGI2_2, Q86UL8; [2]): below the threshold
pKd (SCRIB_2, Q14160; [2]): below the threshold
pKd (IL16_1, Q14005; [2]): below the threshold
pKd (DLG4_2, P78352; [2]): below the threshold
pKd (GRID2IP_2, A4D2P6; [2]): below the threshold
pKd (FRMPD2_2, Q68DX3; [2]): below the threshold
pKd (FRMPD2_1, Q68DX3; [2]): below the threshold
pKd (TJP1_2, Q07157; [2]): below the threshold
pKd (NHERF3_4, Q5T2W1; [2]): 3.7
pKd (TIAM2, Q8IVF5; [2]): below the threshold
pKd (GRID2IP_1, A4D2P6; [2]): below the threshold
Binder: PLSPEQPTKL [TRIM50, Q86XT4]

pKd (MAGI3_2, Q5TCQ9; [1]): below the threshold
pKd (GRIP1_5, Q9Y3R0; [1]): below the threshold
pKd (SNTG2, Q9NY99; [1]): below the threshold
pKd (SNX27, Q96L92; [1]): below the threshold
pKd (MAGI2_3, Q86UL8; [1]): below the threshold
pKd (MAGI2_5, Q86UL8; [1]): below the threshold
pKd (MPDZ_12, O75970; [1]): below the threshold
pKd (SNTG1, Q9NSN8; [1]): below the threshold
pKd (LDB3, O75112; [1]): below the threshold
pKd (SYNJ2BP, P57105; [1]): below the threshold
pKd (DLG4_3, P78352; [1]): below the threshold
pKd (DLG5_1, Q8TDM6; [1]): below the threshold
pKd (PARD3_3, Q8TEW0; [1]): below the threshold
pKd (PDZRN3_1, Q9UPQ7; [1]): below the threshold
pKd (TX1BP3, O14907; [1]): below the threshold
pKd (NOS1, P29475; [1]): below the threshold
pKd (LNX2_2, Q8N448; [1]): below the threshold
pKd (MAGI2_2, Q86UL8; [1]): below the threshold
pKd (SCRIB_2, Q14160; [1]): below the threshold
pKd (IL16_1, Q14005; [1]): below the threshold
pKd (DLG4_2, P78352; [1]): below the threshold
pKd (GRID2IP_2, A4D2P6; [1]): below the threshold
pKd (FRMPD2_2, Q68DX3; [1]): below the threshold
pKd (FRMPD2_1, Q68DX3; [1]): below the threshold
pKd (TJP1_2, Q07157; [1]): below the threshold
pKd (NHERF3_4, Q5T2W1; [1]): below the threshold
pKd (TIAM2, Q8IVF5; [1]): below the threshold
pKd (GRID2IP_1, A4D2P6; [1]): below the threshold
Binder: NRKREIFSNF [NHERF2, Q15599]
